Numbering of substitutions follows the chain as printed. In names and notes the source's numbering stands.
T1: MBP-tagged FRLα C terminus (residues 612–1,094) (UniProt Q9JL26-1 612-1094)
T1 sequence: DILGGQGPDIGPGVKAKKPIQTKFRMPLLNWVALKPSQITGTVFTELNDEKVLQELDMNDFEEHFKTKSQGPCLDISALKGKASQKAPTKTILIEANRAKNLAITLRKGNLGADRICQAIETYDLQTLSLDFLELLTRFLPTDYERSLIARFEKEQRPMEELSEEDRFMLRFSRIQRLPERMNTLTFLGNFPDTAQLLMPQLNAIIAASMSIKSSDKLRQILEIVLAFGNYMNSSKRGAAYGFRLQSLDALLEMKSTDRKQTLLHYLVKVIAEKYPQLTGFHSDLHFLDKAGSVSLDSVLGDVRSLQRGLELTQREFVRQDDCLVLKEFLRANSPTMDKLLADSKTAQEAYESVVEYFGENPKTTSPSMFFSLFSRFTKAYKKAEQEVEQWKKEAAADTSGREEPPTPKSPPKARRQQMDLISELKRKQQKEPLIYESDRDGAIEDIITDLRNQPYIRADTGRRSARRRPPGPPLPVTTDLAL

T2: FRLα C terminus (residues 612–1,094), untagged (UniProt Q9JL26-1 612-1094)
T2 sequence: T1 sequence

B1: GST-tagged FRLα N terminus (residues 1–450) (domain or fragment)
chain: MGNAAGSAEQPAGPTASPPKQPAVPKQPMPAAGELEERFTRVLNCMNLPPDKVQLLSQYDNEKKWELICDQERFQVKNPPAAYIQKLKSYLDTGGVSRKVASDWMSNLGFKRRVQESTQVLRELETSLRTNHIGWVQEFLNEENRGLDVLLEYLAFAQCSVAYDMESTDSVASGAEKSKPLDQSVEDLSKAPPSSVPKSRLTIKLTPAHSRKALRNSRIVSQKDDVHVCIMCLRAIMNYQSGFSLVMNHPACVNEIALSLNNKSPRTKALVLELLAAVCLVRGGHDIILAAFDNFKEVCGEQHRFEKLMEYFRHEDSNIDFMVACMQFINIVVHSVENMNFRVFLQYEFTHLGLDLYLERLRLTESDKLQVQIQAYLDNVFDVGTLLEETETKNAVLEHMEELQEQVATLTERLRDTENDSMAKIAELEKQLSQARKELETLRERFSEST
B2: GST–N terminus T126D of FRLα (residues 1–450) (domain or fragment)
chain: B1 chain with T126D

Tests used:
[1] = biological target: T1, MBP-tagged FRLα C terminus (residues …); assay: pull-down
[2] = biological target: T2, FRLα C terminus (residues 612–1,094), …; assay: pull-down

| Binder | binding result [1] | binding result [2] |
| --- | --- | --- |
| B1 | binds | binds |
| B2 |  | binds |

— PMC2064313 (The Journal of Cell Biology, 2006)
